Laboratory results: publication PMC5833700, “MIF inhibits the formation and toxicity of misfolded SOD1 amyloid aggregates: implications for familial ALS” (Cell Death & Disease, 2018)

B1: macrophage migration inhibitory factor, wild type (MIF^WT) (natural protein, human, UniProt P14174 1-115, looked up)
chain: MPMFIVNTNVPRASVPDGFLSELTQQLAQATGKPPQYIAVHVVPDQLMAFGGSSEPCALCSLHSIGKIGGAQNRSYSKLLCGLLAERLRISPDRVYINYYDMNAANVGWNNSTFA
notes: No tag is mentioned; Surmise: the initiator methionine is removed in E. coli, since tautomerase activity was measured; also called recombinant MIF; hMIF; source: E. coli BL21 (DE3), purified (Capto Q anion exchange, Capto S cation exchange)
B2: locked-trimeric MIF mutant MIF^N110C (natural protein)
chain: PMFIVNTNVPRASVPDGFLSELTQQLAQATGKPPQYIAVHVVPDQLMAFGGSSEPCALCSLHSIGKIGGAQNRSYSKLLCGLLAERLRISPDRVYINYYDMNAANVGWNCSTFA
modifications: disulfide bridge of the introduced cysteine (N110C) with Cys-81 of an adjacent subunit

Legend:
[1] = biological target: T1, poly-histidine tagged apo-SOD1^WT (human, UniProt P00441 1-154); assay: SPR; ProteOn XPR36; poly-histidine tagged apo-SOD1^WT (1 µg, 736 RU) immobilised on tris-NTA HTG chip; MIF as analyte, 31-1000 nM, 25 µl/min; PBST (PBS 300 mM NaCl, 0.05% Tween-20); 25 °C; HTB1 channel subtracted; apparent affinity from steady-state values; details: both partners purified
T1 construct: Cu/Zn superoxide dismutase (SOD1), human, wild type, codon-optimised, in the pHIS1 vector; Apo form; It was captured on the tris-NTA chip by its His tag; also called Cu/Zn superoxide dismutase; source: E. coli BL21, purified (HisTrap FF); not shown: His6, N-terminal, kept
T1 sequence (P00441 whole entry): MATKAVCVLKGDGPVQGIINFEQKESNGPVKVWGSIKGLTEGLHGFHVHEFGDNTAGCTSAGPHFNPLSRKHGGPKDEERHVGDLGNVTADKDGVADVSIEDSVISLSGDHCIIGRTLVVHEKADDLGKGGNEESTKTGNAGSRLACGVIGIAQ

[2] = biological target: the molecule itself; assay: SDS-PAGE without prior crosslinking; 10 µM recombinant MIF, non-crosslinked control; sample buffer without β-mercaptoethanol; 13% SDS-PAGE and anti-MIF immunoblot

| Binder | Kd [1] [nM] | stoichiometry N [2] |
| --- | --- | --- |
| B1 | 1300 |  |
| B2 | 548 | 3 |
